T1: PRAME peptide on HLA-A*02:01 (human)
T1 peptide: SLLQHLIGL

B1: nwTCR-3273 (TCR, V domains shown)
Valpha: SQELEQSPQSLIVQEGKNLTINCTSSKTLYGLYWYKQKYGEGLIFLMMLQKGGEEKSHEKITAKLDEKKQQSSLHITASQPSHAGIYLCGAVPINDYKLSFGAGTTVTVRA
Vbeta: EAQVTQNPRYLITVTGKKLTVTCSQNMNHEYMSWYRQDPGLGLRQIYYSMNVEVTDKGDVPEGYKVSRKEKRNFPLILESPSPNQTSLYFCASSIDSGSSYNEQFFGPGTRLTVL
B2: nwTCR-3274 (TCR, V domains shown)
Valpha: QKEVEQNSGPLSVPEGAIASLNCTYSDRGSQSFFWYRQYSGKSPELIMSIYSNGDKEDGRFTAQLNKASQYVSLLIRDSQPSDSATYLCAVVSGGYNKLIFGAGTRLAVHP
Vbeta: EPEVTQTPSHQVTQMGQEVILRCVPISNHLYFYWYRQILGQKVEFLVSFYNNEISEKSEIFDDQFSVERPDGSNFTLKIRSTKLEDSAMYFCASSEGWGGTEAFFGQGTRLTVV
B3: nwTCR-3272 (TCR, V domains shown)
Valpha: QKEVEQNSGPLSVPEGAIASLNCTYSDRGSQSFFWYRQYSGKSPELIMSIYSNGDKEDGRFTAQLNKASQYVSLLIRDSQPSDSATYLCAVPSGNMLTFGGGTRLMVKP
Vbeta: DVKVTQSSRYLVKRTGEKVFLECVQDMDHENMFWYRQDPGLGLRLIYFSYDVKMKEKGDIPEGYSVSREKKERFSLILESASTNQTSMYLCASSSATSGSGEQYFGPGTRLTVT

Biological target: T1, PRAME peptide on HLA-A*02:01
Test: multimer staining
B1: recognises. B2: recognises. B3: recognises.
